This note sets out measurements from the domain aggregation screens of Martell et al. (2025).

The data set can be described thus: soluble fraction after stress (log2 fold change); higher = more stays soluble; pooled small domains, quantitative proteomics. The settings on record: stress: 50 degC. An outline of the steps: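 Custom libraries of small protein domains were pooled and measured in a high-throughput format, with quantitative proteomics as the read-out. Each library was stressed at 50°C. The value is the log2 fold change in the amount of each protein that stays soluble after stress, used as a measure of aggregation propensity; higher values mean more of the protein stays soluble.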
In the case of “HMVDFVNVVVPVKANYGGEAVVEFLDERLSEFGTEGIYRIELQGETMENPSPDYSQLKAKYHISEIVDRT”, the “soluble fraction (log2)” value came out at 0.08.
Consider “HMPAAKARTWQEATHAFQRDFLLETLRRARFNAADAADQLGLARPALYTTAKRLGLDLVAERQRWEAEAH”, for which the “soluble fraction (log2)” value was -0.173.
On to “HMEALPSNLRRLRLEAQLTLDRLGALSGVSRAMISKIERGASVPTATMLGKLAAALQVSLSQLL”, for which the “soluble fraction (log2)” value was -0.97.
Take “HMGEFVQLKNRTGSVIEAKILNYQNGKVKLQRKDGVIFVVPISIFDRMSSSIIENKAKEMDSF”: the “soluble fraction (log2)” value was 0.00542.
As for “HMSIESMVGRFGVVTKDVVANEMAGKVKVGREEFRATADIAVSSGTKVKVTHAEGITLTVVPE”, the “soluble fraction (log2)” value was 0.378.
As for “HMERRDEINSVVSRYVSAITEGKYDLAEVDETGKLRVQTEGREVLPEALSRGTLEQFYFAFRMAVGSI”, the figure is -0.118; as for “HMNQLSYTERRVLQVIEGGTTKTGEIEQALAAKMSRPTVHRALDALVGANRIHRLARGEYALGPAP”, -0.147.
For the sequence “HMDFPYISGIEIAAIKNREFIRIETDKAQEIAIALDKSGIPFSARFSDAEMVLTYDGSYKEQVEDIIAKA”, the “soluble fraction (log2)” value was -0.0417.
Turning to “HMVMNYKKIGKKIADRRILLGITQEELAEKVDSSANYISNIETGIKSGSLIFYIKVANELKLSLDFLFSDE”, the “soluble fraction (log2)” value is -0.893.
On to “HMTVAQEIEARRATIRSSDPAEMARFIRWLIMEGHTEPAADELKKYAENFPEASATTKQLQALLAAR”, for which the “soluble fraction (log2)” value is -0.177.
As for “HMDEYFNPETVVHYLRELFDTYRENGGNPFEWFHSTFESVNLNPQNYRKDLITTIEKALIEWIEIFEKQ”, the figure is -0.0143; as for “HMSPDTREAILAAARTAFARDGYQTSLRGIARDAGVDPALVHHYFPDRATLFAKAVIESTAG”, -0.00189.
Regarding “HMFHDPTMEETLINLKGITNEVLSLLSSSKIKKLEDLAEMSVPELRDIVENISDEEASALIMEARKPWF”, the “soluble fraction (log2)” value is -0.446.
The result for “HMAPLATLEADGNGAVKLPNLAGHAIREVAAALGGANLALIPIGSGTSWKQNPAPGTILHKGDTVTVYF” reads -0.0832; that for “HMDKELILLWDRVKSKVWQMDIQDSQVANWFQRNYHLTVRLRDFDPPVPPDKFTAEQLASFIKDIERHT”, -0.597.
With “HMKKPAERRKELVDAAAHLFAEKGYENTSVRDILDAVGGAPGMFYYYFKSKQDIYVAVMEDF”, the “soluble fraction (log2)” value was -3.54.
For the sequence “HMKGEIEELLYEEVTKDNNTTFLRIYIKLNDEYNTLLNLGIIGIKTEEKVNELVNLGYKKVL”, the “soluble fraction (log2)” value was -2.45.
As to “HMGKNIQAIRYKNNMTQDQVVAKLNLMGISITKSTYAKLETNRMNIKASELVALAKLFHTDINAFFSG”, the “soluble fraction (log2)” value is -3.24.
Turning to “HMAVPAALVQAWLELSRRMVAGTQDVGERFAEEARKMHYGETEDRGIRGQATLTEVRDLLDEGIEVLPLLL”, the “soluble fraction (log2)” value was -0.392.
In the case of “HMSNSMISKDKAMSIALAKVSGATSSNIYIELEKDDGRYTYEGEINFNNKEYEFEIDAYTGNILKWEVDSI”, the “soluble fraction (log2)” value is -0.333.
As for “HMGSYIGEAKAKEIALSHAGVSASQATFVRSQFEYDDGRAVYDVDFWSGNKEYDYEIDAKSGTIVSYDFD”, the figure is -0.398; as for “HMDDGALQIRLGPQALQQRLDKLGYSLNKEDLDLVYQYFLHSADSKGAVYDQELRELMGEAGVE”, -0.0408.
As for “HMRAERVQITDPYIELHTGPGRGFPIFFVAPREQWISIELRHTDWFKVRAVGGQVGWVQRKQLEST”, the figure is -0.455; as for “HMKLHFTINGVHYTWYKQFIRGIQIRELGNIPREDELYLDLPDGWKDDFIEDDEIVDLARPGVEHFISRAK”, -1.78.
Regarding “HMDGYTVYTNWGSDTNVARSDQQIQSQIPQLSGATIVGVWTKPIATGGTSYKIRYRTNSGAFTEIDVDQ”, the “soluble fraction (log2)” value is -0.105.
As to “HMKFHENLIALRRREGWSQEELGNRIGVTRQTVSKWELGLTTPELEKLVQLADVFGMTTDQLVGR”, the “soluble fraction (log2)” value was -0.146.
As for “HMYNKKAYVNTNSDFLNVRSEASTESSVVDKLARGTEVNIVGNIQNGFYPIVLNEKNAWVSSDWISFEKPT”, the figure is 0.227; as for “HMDSLSGQQGRVLEEINGFLQTGKVLLNGMEWSAVSKQPEDILPVDTEVVVVRVEGAHLVVKKA”, 0.0592.
As for “HMHAGQIISQKIKESGISISHVAKHLKVQRATLYNLFEREVWPAHRLRTIEALLHIDLSDLYP”, the figure is -1.62; as for “HMADGDIIPEGQRDATLASLAGSMRARGMTEAEILAALQVTNETRVRPPMALADLERIARSIGRYEPGK”, 0.0818.
Turning to “HMGNIIITPNPASDFIKIISNSPIIKFGFYDIYGNTINKKFNDNSINISDLPVGMYLINLNERYFKLLK”, the “soluble fraction (log2)” value was -0.0951.
For “HMGDAATVFRDHYNINSAAQAQAALDRKEALWEQPNPWRDSDNREVFDWAAQTVKDRFDSGKYKPK”, the “soluble fraction (log2)” value stood at 0.129.
The result for “HMHLLGASIAAYRKKAGMTQEDLGRALFVSGQAVSRWERGGTPDSDMLPKIADVLGISLDTLFGRS” reads -0.559; that for “HMIVVMQPGATKEQVQAVIDRVAEFGFQTKLAPGAERMVIGVVGSPLPDTLKEALERLPGVEEVIRVSKR”, -0.0691; that for “HMDSIDIDAETKSLGPNAPQIIKGIKEWGQGLVAKGVWSDQDFEEFKVFAATANGINALNKVRKFY”, -0.154.
As for “HMSMDAVSLANRLLRFFQKRPGRKFTAADLAFETGMNERTGKSLVTSALEILSRTNQIEADGDGFRLKM”, the figure is 0.138; as for “HMRIQTVDYNTFISMVEDGKVDAAEIQQQENRILFSDQDQKVYKTAMVPDDDLTQRLLDAGVSTNG”, 0.274.
The result for “HMVSTSVTVTGDLNVRADSRADSDLVGALIPGQTVTRLAVLDNGWSKIRFDDGAGTVVEGYVLSEYLQADG” reads 0.0817; that for “HMSKIRSEINKFSSDADKPILEWLFERYHWASQWRFVARFSEQRYGVLSYEINRVWEPTIEGRALYDQL”, -2.34.
As to “HMQAVKQIKVERGMTLEKIAQSEFGDSTRWGEIVEVNNLRAPYISDDPTETRDGVLKPGSNLLIPIP”, the “soluble fraction (log2)” value worked out at 0.094.
The result for “HMGVMTGAEFVGNTVASVERNLIIDTLKHTMGNRTTAANILGISIRTLRNKLKQYQNEGFDIPE” reads -0.703; that for “HMVGADTISDLISQRGRMIGDKPITNAVIKSGSEFSTINALSKAIASGDARTNDVEGMKPVFR”, -0.0638; that for “HMTDFNTFSDAIIAAVGSRASGLKVVDNAVSVMVDVSGLNEDQRVEIEADVRAAAEHAGAQSVRIMLT”, -0.438.
On to “HMSQRITYTEFVQMVKDDKVEKVEVGANQYNITPKSDDKTLVKMTYYTGFIKDENLLDLLNKHKVEIDGYI”, for which the “soluble fraction (log2)” value came out at 0.157.
The result for “HMSMPEVLSDRELEIFRMIGTGMSTGDIAKKLNISVNTIESHRKKIKDKLGIQKGSELVKAAVQWVSTQQ” reads -0.262; that for “HMSGVIVPDIYNKTLAEAVASLEGEGFSTEKKEGYSDTVPKGNVMSQKPEAGTSAERGSTVTITISQGPQ”, -0.0107.
With “HMSEKLTLEAANEAAGMRIDKWLAMQLPELSRSRIEALISGGGVVVNGKNPSKSLKLKGGEQIELEIPE”, the “soluble fraction (log2)” value stood at 0.0725.
On to “HMSDEAGKVLQLLRENGGYLPYNDRSDPEDIYAFFSMSKKTFKMTAGNLYKQKKIIFTNTGIKLTE”, for which the “soluble fraction (log2)” value is -0.856.
The result for “HMEAYMVPNVKNKTLNEAQQALSNQKLKGLVIDSSYVKGVPDGMVLDQNPAGGARVKEGRTIYLTVTTS” reads 0.318; that for “HMLDPVLQREKDESFTDYHIRLFKNKDTYHIDTKTIATLLNKDQGTNYDESKWRKDFKQYERWNDYIMSKN”, 0.145.
